# Assay: soluble fraction after stress (log2 fold change); higher = more stays soluble; pooled small domains, quantitative proteomics
# Conditions: stress: 75 degC
# 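Further: 20 min heating vs room temperature control held 20 min.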
row,Sequence,soluble fraction (log2)
1,HMTAPELGIRQDGNTLVIFWPSSVTGYVLKSADAVDTPPASWTSVTHTTVGDEHRAEITPTGNSRFFRLV,-0.156
2,HMTAPQAQDYARVPDVLGLDMRESAQALRLDGFEMNAQGDGLAARQSPIGGSYAPEGTQVLVTFEM,0.053
3,HMTAQLAAQERTHALDMFMGGYKFSSKPAENGVRAEFEKKNFTLEDGKFLGGDEFMKSLMENDDYKGAFV,0.406
4,HMTASKSTVSTPEKVVYHIVFPKETKYSIAKKYGITIEELEKRNPEIIPSLSVGQKLVIKGTAPK,-0.236
5,HMTATDRQLQLIAYTAARLMAEQGIADFNAAKRKAIQTLGLPNNAKLPGNADVEAQLRAYQRIF,-0.605
6,HMTATKDLPFSTFITEVEKGNITSVDIKGNQIEGTFSNGAKFKTYSPNYPNLVERLADKGVAISAGPS,0.0934
7,HMTAVPADVETVTGFTALDRAGLDTLLARLGLAMDLEDLSFLQAYFRDTERRDPTLTEIRVVDTYWSDH,-1.1
8,HMTDAEQHEALLFKQVVDGLPQTLRDTFVLSRHAGMTYAEISAHTGTPIKTVESRMAKALELIAQRMR,-1.27
9,HMTDDALIGKTAQVTVAIKPGSVGQITARVGDERVERLARASADAEIAAGSLVTIKSIAGDSVIVAPE,0.317
10,HMTDDPGLSRAENRELQTLLLDRGHDIGQPDGLIGAKTRAAIRAEQSRLNMPVNGRGGQKLLRALRL,0.262
11,HMTDFLKTRIDTLGLSTRTLNALSEANVRTIGGIARKKQEDLLEIDGIGEKGIQEIKKMLGEYGITL,-0.303
12,HMTDFSDLSFKYNSEEKDVLNSINLKINGGEMTSLVGHSGAGKTTILNLIPRFYEKSKGDISIDGQSIY,0.0241
13,HMTDGLTVPMQGVVIRYKAKKGDKVAVGDAVAVLEAMKMEQNIFANKSGTIKEIYIKEGTTVTPGDVLMSI,-0.315
14,HMTDLNDTQIKILELLSADASLSAAKMAGQLGIAGRNVEANIKKLKEKGILIRHGSPKSGYWEIVN,-0.349
15,HMTDNSTTTIRNLKIEWLLEEIRNAVRTGVSVDAAVERISNNPFVKPPEDLLNEARIIFLQNAGQI,-0.79
16,HMTDPVLYEERDDIAIITINRPEKKNTLTDAVIQGIADGIDAATKSADVVAVVLRGAGDTLTAGYDLTA,0.213
17,HMTDSDTQDIDVGELRVGHFVFLDLSWIRHPFPLSSFKIQSAEQIKTIRSLGLRRIRYSPGRSGP,-1.31
18,HMTDSSEILEAALKEAEDAAHEVLNGTFSVQLEPQKAYIRRLQHMLIDRMNLSSTSKGKEPYRSLLVYR,-1.41
19,HMTDTDVLSSRLSALSSGRTSAVRLRDGVLSLVLDVGGLSIEARKAMTTAIESTARATPGVEAVRIAET,-0.479
20,HMTDTSFPRLGAPEEELLSFLAKWEIDAEDAHYTKFSLYYQSTGKMMRDWKATWRAWKERQSELNAQR,-2.33
21,HMTDVGLEAAKAAALKHAGLSADQVTGLTAKLDWDDGQRVYEVDFWQGSTEYEYEINADGTVRQYESEAH,≥ 1.04
22,HMTDVRFIDIPVTEHHPWNGMKVRDLQLPPGTLLVFLSHPGEKNTVPHGETVLRSGDVLVLGATAYTGQ,-0.753
23,HMTDVRFISIPIQKEHPWNRKLVSELNLPPGTLLVFLRRTGENIVPNGKTMIQEGDVLVLGASAYR,-1.31

row,Sequence,soluble fraction (log2)
1,HMTEALEFTVEDLRMAGLVNSSFSRRRRELFSEKLGIGYGNGKSLLKKLNGYGITREEFNGAIQSLSD,-0.817
2,HMTEIILTARSGRHAVRHRLEGLGYTLTPEELERVHQRFLAVADAKKEVFDEDLHALMADERGT,-0.219
3,HMTEKMILKWKEALERMNDDFTTKDWLNVVIHEMGKSERTAYGWLSDMKRSGIIKDLGYGSWLKVLE,-1.37
4,HMTEKPTREAHILDQLARDGGVLVAALSRELGVSEVTIRSDLRDLEAAGLLQRTHGGAQASSFQTVL,-0.0942
5,HMTELNNTQRAAVLLLALDEDSAAEVFKHLSAREVQEVSQEMAKLGNISHDQMRQVLDDFYDESEQF,-0.127
6,HMTELPLTPRSKRILEMSALEARRLNHSYIGTEHLLMAIIRDGDGVAAKILESLGVNLPNFYTDTVRSIE,0.0533
7,HMTELSLSEQAYQQLRRMIVRLDFAPGDVLREEALQEALGMSRTPIREALQRLAREHFVTVIPRRGMFVS,-3.15
8,HMTELVIPDYFSKALAKNKKAKQVFEAFAYSHRKEYLQWITEAKTEETRNKRMATAIEWIAEGKGRNWKYA,-3.45
9,HMTEPIESVTTIAGRRIPYRLVRSLRARRMRMTIKESQVTVTLPRGVPLGEAERFLQQNAAWLFKQLDKP,-2.63
10,HMTESIHVGSKVTINNNAKRWATGQNIYSGVKGKTYTVIQMNGSRLLLDKVISWINKGDVHLPGS,-1.94
11,HMTESIKRDEAIRLNNGRIYTLDAAKIGTNEYEVMLFNPRTGEEIDSAKTSTEADAILQFDRLRRMYHR,0.0129
12,HMTETELYDEVNRLIGLHLSERDRMILIMRDRDEFEIDAIAARTGLSEGNIRLILSRARRTVREAYRNNI,-4.11
13,HMTETNSVTINERLTLYRRSRSGRWQARVKLNTGEWHRFSTGTADFEKAKESAHRELHNVGFRAENNLPQ,-1.16
14,HMTFDWAAYEISEKEIRVMSLVAEGFSNKEIAQELFLSEGTVRNYISNILEKLGLRDRTQLAVHYLKAV,-3.83
15,HMTFENMFIENSGETLDREFLVENLRGISWQSYDRSVDVLVSRLRGKLGETPNNTRFIKTIHGVGYKFIGE,0.353
16,HMTFGENLIRLRRQQGLSQEQLGMRIGVSRQTVSKWELNDTTPEMEKLIALADLFGLSLDELTGRV,-0.974
17,HMTFNLDVDGDDQVTALGDGLMIIRKLFGATFAGDALTNKAISPDATRTTDEIHAYIEKGITSGVLD,-0.403
18,HMTFPAILRELLEKHPQTGKRTTLKELGEAVGTRQQSISLYRNGDTQPSPDILVRIAAFFGVSVDYLL,-0.499
19,HMTFPYTSLKDAPKNMKEIDGVPLTLDQVNQIAKVADSIGVSKEKNGYAIAKSQFKKSHHIENNRWVKNK,-0.179
20,HMTFVHTQIEATKEWIISHPLDKHPAVAVVDSAGSIVIGEVDYISKSIVRLRFTAEFSGKAYL,-2.06
21,HMTGAEGKLARYLLTVPSGEPLRLSATDLAKRLGISRASLYRAFQALEDARLIRREGKSMYVLDPAGLEGV,-0.723
22,HMTGENWAERSRQLAAAGLLVLGKEAQEKIASLPNLIPLIEAAAASDTRLLNAQTIDELLSFVPTEETI,-0.104
23,HMTGESVPAPLSGTIFKILVAPGEQVEEGQTVIILEAMKMETEISAPRSGVVGAINIKEGDSVQVGQSLFT,0.232

row,Sequence,soluble fraction (log2)
1,HMTGIKISVDRLQIGNYVKLPLNWKDHPFLFSSFAIKSQEEIDLIRRLGLKQVIMFPDKSSMPPKPV,-1.55
2,HMTGLSNFEFNQIKLDLMHELTQTPLRLTDLVNRITSFENEKTITVIRFLVDEGILLLKDDTLSVAKID,-3.06
3,HMTGMEAAEFGKRIMKLRKQKGMTQSKLAEQINVSNKAISRWETGEGFPEITLLKPLAKALGTTVDELFGE,-0.334
4,HMTGMEKFLTIPSIRESTAAFEREYLIHYLDENAWQVSKTAAAIGIERTTLYKKMKQLGIVPIEE,-3.22
5,HMTGNWRQMHKVKSKETIYGIAKEYGITVDELTKANPGMEAPGYTLKKGDYIFIPYATADANV,-0.432
6,HMTGQEGLIGAHGVALTRLSNEEGEVKVQGEIWQARSDQEVAKGASIEVVHVDGLVLTVRPQH,-0.0319
7,HMTGQLTEEELKQRQERAMSNPEIQGILSDPVMRQVLQDMSTDPKAAAEHQRNPTIMAKIQKLINAGIVQV,0.00889
8,HMTGSETLQDIFAHLEAGTVRTALSLIPRLDAVEYEQNRQRIAELAGVRPSALDDLRKQAKREEN,≥ 1.04
9,HMTGTKEQQVVMLNNILQKQLQAFELQGKRDYPMVTMKNMYNTLSKMVENAGLQTVESYFVDPIKGQQM,-0.694
10,HMTGVEAIERYLASGVIPGVGPVLAKRLVERFGARTLEVIEDSPRRLTQVPGIGRQKARQIHQALKAQRE,-0.406
11,HMTGYVMIRVDGLSLEKFLNMAAEAGVRVSDVRRASYTVLYAVVSPRDLKKLQSVAPEKYTVTVR,-1.18
12,HMTHANAALTPRHRLKVARLVVDEGWPVSEVAARFQVSWPTVKRWADRYRAGQSMQDRSSRP,-1.96
13,HMTHEAEDLNALRMMVRDPIFSSDEPDLQQLRGAVAHAPQFVDRFKELYNDYQRLAEFVQNSL,-0.993
14,HMTHFRTDERRREILSTIEADGRVSVSEIASRFDVSPVTIRSDLNYLAIQGKLKRVRGGAVLLDH,-1.17
15,HMTIDNPESQKIMDMVPFFFQSRNYDEAIEALTYVIEQEPQFSEAYNKRATFYFMMGDLENSMKDIEITLA,-0.29
16,HMTIGIGKSLDFNTSGEKAYRIYNFKGAYVGTFKASDMTSLKNEVQKSNVKAGAYMVRSLDGHVNRLIEIK,-1.49
17,HMTIGKIVNIIEGSYANVRSAPDQNSEPIGRAYPGDAFLVDPLGSSGDWVKVTYEGQSGFIFQAYISV,-3.94
18,HMTIGKRIKRRRIELKMSIDSLARTIGKDRSTVYRYESGAIDKVSSDVLAKLATALNTTPAYLIGL,-4.61
19,HMTIKNHIDEILKKEPFILENIKNGLINISALARQIEPQLSRKVGKKLNVNAIIMTIKRMEIDQLNK,-2.25
20,HMTIPNGTVVNGTVLEAREAGAYLVRVAGQTLTAQANLPLLVGQHFRAVWDSSGDIPVLRLSDAEQALLGK,-0.362
21,HMTIPRLPFAFAKRFGIVLDNRPSGFVAAHKEGLLPHVLLEVQRFLGDAYTLEVVSDDDFERILGQVYQT,-3.72
22,HMTIPSYAEAVRYVRRQPRINTSTLADGLGIRWSLALDYLERMARSGVVGAIEDDGWWPVAR,-0.977
23,HMTIRIPEEEYLTRAKRAAQMTAERGLDALFLFGSEGDFQNVRYFTSVTPIWERLGVVITASGKAAMLTGP,-0.145
